Laboratory results from patent US20230416362A1.
pEC50, pIC50: −log10 of the molar value.

Legend:
[1] = biological target: mTIGIT (ELISA of Table 7) (mouse) (UniProt P86176); test: mTIGIT/mCD155 competition ELISA; competitor mCD155
[2] = biological target: mTIGIT (ELISA of Table 7) (mouse) (UniProt P86176); test: ELISA binding

Sequence of mTIGIT (ELISA of Table 7) (mouse) (P86176 29-145 limits assumed): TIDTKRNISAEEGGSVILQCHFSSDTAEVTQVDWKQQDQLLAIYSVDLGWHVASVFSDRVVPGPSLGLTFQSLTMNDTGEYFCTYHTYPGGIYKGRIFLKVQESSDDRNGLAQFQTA

With 1G9 (Bio X Cell, #BE0150) (antibody) the pIC50 [1] was 8.82 and the pEC50 [2] was 9.52.
